Reference: patent publication US20230014722A1 (CSTONE PHARMACEUTICALS, published 2023)
Blank lines part the entries; values can stand above or below the binder they belong to.

How the values were obtained:
[1] = biological target: human PD-1 antigen protein of the affinity-maturation screen (human, UniProt Q15116 25-167, limits assumed, biotinylated); test: capture ELISA, second-round affinity-maturation screen (scFv format likely); unit not given
[2] = biological target: cynomolgus PD-1 antigen protein of the affinity-maturation screen (cynomolgus); test: as above
[3] = biological target: T1, mouse PD-1 antigen protein of the affinity-maturation screen (mouse, UniProt Q02242 25-167, limits assumed, biotinylated); test: as above
T1 sequence (looked up): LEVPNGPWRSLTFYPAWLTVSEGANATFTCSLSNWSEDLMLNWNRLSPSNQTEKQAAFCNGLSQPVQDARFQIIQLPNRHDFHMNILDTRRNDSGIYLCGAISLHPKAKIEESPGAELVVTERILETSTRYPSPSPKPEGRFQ

[4] = biological target: T2, mouse PD-1 on transfected 293F cells (mouse, UniProt Q02242 25-288); test: flow cytometry on 293F cells expressing mouse PD-1, quantitative beads
T2 construct: whole, on cells; also called cell surface mouse PD-1
T2 sequence (looked up): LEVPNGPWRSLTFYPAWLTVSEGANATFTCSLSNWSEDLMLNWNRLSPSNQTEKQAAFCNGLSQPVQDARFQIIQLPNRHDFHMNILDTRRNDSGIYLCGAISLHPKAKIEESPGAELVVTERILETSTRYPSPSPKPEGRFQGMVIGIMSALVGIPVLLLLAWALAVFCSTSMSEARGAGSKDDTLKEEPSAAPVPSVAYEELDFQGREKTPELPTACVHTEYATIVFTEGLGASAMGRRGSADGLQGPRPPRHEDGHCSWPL
Protocol: (§1) Testing antibodies were 1:2 serially diluted in wash buffer (1×PBS/1% BSA) and incubated with cells at 4° C. for 1 h.

[5] = biological target: T3, human PD-1 on transfected cells (human, UniProt Q15116 25-288); test: flow cytometry on CHO-S cells expressing human PD-1, quantitative beads
T3 construct: also called CHO-S cells expressing human PD-1; human PD-1 transfected CHO-S cells
T3 sequence (Q15116 25-288 limits assumed): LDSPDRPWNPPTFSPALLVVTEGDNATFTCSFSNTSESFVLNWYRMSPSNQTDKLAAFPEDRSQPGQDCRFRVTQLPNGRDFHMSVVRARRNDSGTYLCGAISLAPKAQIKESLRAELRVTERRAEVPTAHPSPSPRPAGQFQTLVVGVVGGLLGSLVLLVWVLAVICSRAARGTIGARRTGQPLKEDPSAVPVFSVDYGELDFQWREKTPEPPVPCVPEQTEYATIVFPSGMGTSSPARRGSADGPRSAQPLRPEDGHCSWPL
Protocol: as §1

[6] = biological target: T4, human PD-1 (Sino Biological), coated on plates (human, UniProt Q15116 25-167); test: ELISA, plates coated with human PD-1 at 1 µg/ml
T4 construct: whole entry named
T4 sequence (Q15116 25-167 limits assumed): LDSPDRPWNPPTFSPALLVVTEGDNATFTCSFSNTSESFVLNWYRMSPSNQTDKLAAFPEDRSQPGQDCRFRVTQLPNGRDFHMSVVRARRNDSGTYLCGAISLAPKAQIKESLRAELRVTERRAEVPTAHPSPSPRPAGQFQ
Protocol: (§2) For ELISA, plates (Nunc) were coated with human, cynomolgus or mouse PD-1 (Sino Biological) at 1 μg/ml overnight at 4° C. After blocking and washing, antibodies were serially diluted in blocking buffer and added to the plates and incubated at room temperature for 1 h. The plates were then washed and subsequently incubated with secondary antibody goat anti human IgG HRP (Bethyl) for 1 h. After washing, TMB substrate was added and the reaction was stopped by 2 M HCl. The absorbance at 450 nm was read using a microplate reader (Molecular Device).

[7] = biological target: T3, human PD-1 on transfected cells; test: FACS, human PD-1 transfected CHO-S cells
[8] = biological target: T5, human CD28 on a constructed cell line (human, UniProt P10747 19-220); test: FACS, CD28.CHO-K1 cells, one antibody concentration (not given)
T5 construct: whole, on cells
Protocol: (§3) Constructed cell lines that respectively express human PD-1, CD28, CTLA-4 or ICOS were transferred in to 96-well U-bottom plates (BD) at a density of 2×10⁵ cells/well. Testing antibodies were diluted in wash buffer (1×PBS/1% BSA) and incubated with cells at 4° C. for 1 h. After washing, the secondary antibody goat anti-human IgG Fc FITC (Jackson ImmunoResearch Lab) was added and incubated at 4° C. in the dark for 1 h. The cells were then washed once and resuspended in 1×PBS/1% BSA, and analyzed by flow cytometery (BD) and FlowJo software.

[9] = biological target: T3, human PD-1 on transfected cells; test: FACS competition on CHO-S cells expressing human PD-1 against biotinylated WBP305BMK1 at 1 µg/ml
Protocol: (§4) The cells were washed and the second antibody Streptavidin-PE were added and incubated for 30 min at 4° C. The cells were then washed once and resuspended in 1×PBS/1% BSA, and analyzed by flow cytometery (BD).

[10] = biological target: T3, human PD-1 on transfected cells; test: FACS competition on CHO-S cells expressing human PD-1 against biotinylated Keytruda at 1 µg/ml
Protocol: as §4

[11] = biological target: T2, mouse PD-1 on transfected 293F cells; test: FACS blocking assay: mouse Fc fusion-mouse PD-L1 binding to mouse PD-1 transfected 293F cells
mPD-1.His = biological target: T6, mPD-1.His (mouse, UniProt Q02242 25-167, limits assumed); test: SPR (ProteOn XPR36), antibody captured on Protein A, PD-1.His as analyte, 1:1 fit
T6 construct: Soluble analyte, probably the extracellular domain; also called mouse PD-1 (SPR analyte)
T6 sequence (looked up): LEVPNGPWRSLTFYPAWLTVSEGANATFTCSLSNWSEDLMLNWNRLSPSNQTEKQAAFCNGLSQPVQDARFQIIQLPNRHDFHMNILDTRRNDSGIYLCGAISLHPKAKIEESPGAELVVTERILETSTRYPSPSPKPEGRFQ
Text: (§5) Antibodies were characterized for affinity and binding kinetics to PD-1 by SPR assay using ProteOn XPR36 (Bio-Rad). Protein A protein (Sigma) was immobilized to a GLM sensor chip (Bio-Rad) through amine coupling. Purified antibodies were flowed over the sensor chip and captured by the Protein A. The chip was rotated […] and washed with running buffer (1×PBS/0.01% Tween20, Bio-Rad) until the baseline was stable. Seven concentrations of human PD-1 and running buffer were flowed through the sensor chip at a flow rate of 30 μL/min for an association phase of 180 s, followed by 300s dissociation. After regeneration, seven concentration of mouse PD-1 and running buffer were flowed through the sensor chip at a flow rate of 30 μL/min for an association phase of 180 s, followed by 300 s dissociation. The chip was regenerated with pH 1.5 H₃PO₄ after each run. The association and dissociation curve was fit by 1:1 Langmuir binding model using ProteOn software.

hPD-1.His = biological target: T7, hPD-1.His (human, UniProt Q15116 25-170); test: as above
T7 construct: the SPR text says only human PD-1; also called human PD-1 (SPR analyte)
T7 sequence (Q15116 25-170): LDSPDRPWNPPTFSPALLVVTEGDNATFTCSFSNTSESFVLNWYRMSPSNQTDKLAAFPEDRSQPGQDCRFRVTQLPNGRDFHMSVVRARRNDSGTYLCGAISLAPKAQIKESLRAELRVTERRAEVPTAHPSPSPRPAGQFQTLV
Text: as §5

[12] = biological target: T2, mouse PD-1 on transfected 293F cells; test: FACS, mouse PD-1 transfected 293F cells
[13] = biological target: T8, human CTLA-4 on a constructed cell line (human, UniProt P16410 36-223); test: FACS, CTLA-4.293F cells, one antibody concentration (not given)
T8 construct: whole, on cells
T8 sequence (P16410 36-223): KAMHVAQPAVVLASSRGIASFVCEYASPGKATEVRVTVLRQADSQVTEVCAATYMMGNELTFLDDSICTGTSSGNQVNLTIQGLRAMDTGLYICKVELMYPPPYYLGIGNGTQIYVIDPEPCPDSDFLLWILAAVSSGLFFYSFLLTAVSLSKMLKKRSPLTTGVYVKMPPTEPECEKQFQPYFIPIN
Protocol: as §3

[14] = biological target: T3, human PD-1 on transfected cells; test: FACS blocking assay: mouse Fc fusion-human PD-L1 binding to human PD-1 transfected CHO-S cells
[15] = biological target: T9, mouse PD-1 (Sino Biological), coated on plates (mouse, UniProt Q02242 25-167); test: ELISA, plates coated with mouse PD-1 at 1 µg/ml
T9 sequence (looked up): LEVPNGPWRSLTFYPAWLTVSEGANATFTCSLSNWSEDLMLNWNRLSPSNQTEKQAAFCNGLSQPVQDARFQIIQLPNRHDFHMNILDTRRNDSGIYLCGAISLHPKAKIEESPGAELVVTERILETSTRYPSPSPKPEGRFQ
Protocol: as §2

[16] = biological target: cynomolgus PD-1 (Sino Biological), coated on plates (cynomolgus, UniProt B0LAJ3 25-170); test: ELISA, plates coated with cynomolgus PD-1 at 1 µg/ml
cynomolgus PD-1 (Sino Biological), coated on plates, sequence (B0LAJ3 entry or part of it limits assumed): as the sequence (Q15116 25-170) above, with D2E, P10A, V19L, T35A, Q75R, T144A counted along it
Protocol: as §2

human PD-1 antigen protein of the affinity-maturation screen, sequence (Q15116 25-167 limits assumed): as the sequence (Q15116 25-167 limits assumed) above

B1: 2E5 (antibody, human IgG4, V domains shown)
VH: QVQLVQSGAEVKKPGSSVKVSCKASGFTFTTYYISWVRQAPGQGLEYLGYINMGSGGTNYNEKFKGRVTITADKSTSTAYMELSSLRSEDTAVYYCAIIGYFDYWGQGTMVTVSS
VL: DVVMTQSPLSLPVTLGQPASISCRSSQSLLDSDGGTYLYWFQQRPGQSPRRLIYLVSTLGSGVPDRFSGSGSGTDFTLKISRVEAEDVGVYYCMQLTHWPYTFGQGTKLEIK
- Bmax [1]: 3.28
- Bmax [2]: 1.72
- Bmax [3]: 0.47
- Kd [4]: 29 nM
- Kd [5]: 0.23 nM
- EC50 [6]: 0.18 nM
- EC50 [7]: 2.2 nM
- binding result [8]: no binding
- IC50 [9]: 5.84 nM
- IC50 [10]: 9.52 nM
- IC50 [11]: 13 nM
- Kd (mPD-1.His): 3.99 nM
- koff (mPD-1.His): 0.00129 s⁻¹
- kon (mPD-1.His): 323000 M⁻¹ s⁻¹
- Kd (hPD-1.His): 6.13 nM
- koff (hPD-1.His): 0.00366 s⁻¹
- kon (hPD-1.His): 597000 M⁻¹ s⁻¹
- EC50 [12]: 12.9 nM
- binding result [13]: no binding
- IC50 [14]: 2.14 nM
- EC50 [15]: 0.37 nM
- EC50 [16]: 0.25 nM

B2: 2B1 (antibody, V domains shown)
VH: QVQLVQSGAEVKKPGSSVKVSCKASGFTFTTYYISWVRQAPGQGLEYLGYINMGSGGTNYNEKFKGRVTITADKSTSTAYMELSSLRSEDTAVYYCAIIGYFDYWGQGTMVTVSS
VL: DVVMTQSPLSLPVTLGQPASISCRSSQSLLDSDGNTYLYWFQQRPGQSPRRLIYLVSTLGSGVPDRFSGSGSGTDFTLKISRVEAEDVGVYYCMQLTHWPYTFGQGTKLEIK
- Bmax [1]: 3.02
- Bmax [2]: 1.21
- Bmax [3]: 0.339

B5: L1I (antibody, V domains shown)
VH: QVQLVQSGAEVKKPGSSVKVSCKASGFTFTTYYISWVRQAPGQGLEYLGYINMGSGGTNYNEKFKGRVTITADKSTSTAYMELSSLRSEDTAVYYCAIIGYFDYWGQGTMVTVSS
VL: DVVMTQSPLSLPVTLGQPASISCRSSQSLLDSDGNTYLYWFQQRPGQSPRRLIYLVSTLGSGVPDRFSGSGSGTDFTLKISRVEAEDVGVYYCMQLTHAPYTFGQGTKLEIK
notes: also called L11
- Bmax [1]: 1.05
- Bmax [2]: 0.0517

B6: 1H6 (antibody, human IgG4, V domains shown)
VH: QVQLVQSGAEVKKPGSSVKVSCKASGFTFTTYYISWVRQAPGQGLEYLGYINMGSGGTNYNEKFKGRVTITADKSTSTAYMELSSLRSEDTAVYYCAILGYFDYWGQGTMVTVSS
VL: DVVMTQSPLSLPVTLGQPASISCRSSQSLLDSDGGTYLYWFQQRPGQSPRRLIYLVSTLGSGVPDRFSGSGSGTDFTLKISRVEAEDVGVYYCMQLTHWPYTFGQGTKLEIK
- Bmax [1]: 3.35
- Bmax [2]: 0.317
- Bmax [3]: 0.221
- Kd [4]: 53.9 nM
- Kd [5]: 0.215 nM
- EC50 [6]: 0.2 nM
- EC50 [7]: 2.64 nM
- binding result [8]: no binding
- IC50 [9]: 8.77 nM
- IC50 [10]: 17.6 nM
- IC50 [11]: 20.4 nM
- Kd (mPD-1.His): 9.37 nM
- koff (mPD-1.His): 0.003 s⁻¹
- kon (mPD-1.His): 320000 M⁻¹ s⁻¹
- Kd (hPD-1.His): 14.3 nM
- koff (hPD-1.His): 0.00918 s⁻¹
- kon (hPD-1.His): 644000 M⁻¹ s⁻¹
- EC50 [12]: 15.1 nM
- binding result [13]: no binding
- IC50 [14]: 2.22 nM
- EC50 [15]: 0.34 nM
- EC50 [16]: 0.28 nM

B7: 1G10 (antibody, V domains shown)
VH: QVQLVQSGAEVKKPGSSVKVSCKASGFTFTTYYISWVRQAPGQGLEYLGYINMGSGGTNYNEKFKGRVTITADKSTSTAYMELSSLRSEDTAVYYCAILGYFDYWGQGTMVTVSS
VL: DVVMTQSPLSLPVTLGQPASISCRSSQSLLDSDGATYLYWFQQRPGQSPRRLIYLVSTLGSGVPDRFSGSGSGTDFTLKISRVEAEDVGVYYCMQLTHWPYTFGQGTKLEIK
- Bmax [1]: 2.6
- Bmax [2]: 1.08
- Bmax [3]: 0.3

The next lines start with the values.

- Bmax [1]: 2.31
- Bmax [2]: 1.11
- Bmax [3]: 0.437
B3: 8C10 (antibody, V domains shown)
VH: QVQLVQSGAEVKKPGSSVKVSCKASGFTFTTYYISWVRQAPGQGLEYLGYINMGSGGTNYNEKFKGRVTITADKSTSTAYMELSSLRSEDTAVYYCAIIGYFDYWGQGTMVTVSS
VL: DVVMTQSPLSLPVTLGQPASISCRSSQSLLDSDGQTYLYWFQQRPGQSPRRLIYLVSTLGSGVPDRFSGSGSGTDFTLKISRVEAEDVGVYYCMQLTHENYTFGQGTKLEIK

- Bmax [1]: 2.57
- Bmax [2]: 0.0787
- Bmax [3]: 0.174
B4: A6W (antibody, V domains shown)
VH: QVQLVQSGAEVKKPGSSVKVSCKASGFTFTTYYISWVRQAPGQGLEYLGYINMGSGGTNYNEKFKGRVTITADKSTSTAYMELSSLRSEDTAVYYCAILGYFDYWGQGTMVTVSS
VL: DVVMTQSPLSLPVTLGQPASISCRSSQSLLDSDGNTYLYWFQQRPGQSPRRLIYLVSTLGSGVPDRFSGSGSGTDFTLKISRVEAEDVGVYYCMQLTHWPYTFGQGTKLEIK

- Bmax [1]: 2.65
- Bmax [2]: 0.258
- Bmax [3]: 0.164
B8: 5C4 (antibody, V domains shown)
VH: QVQLVQSGAEVKKPGSSVKVSCKASGFTFTTYYISWVRQAPGQGLEYLGYINMGSGGTNYNEKFKGRVTITADKSTSTAYMELSSLRSEDTAVYYCAILGYFDYWGQGTMVTVSS
VL: DVVMTQSPLSLPVTLGQPASISCRSSQSLLDSDGQTYLYWFQQRPGQSPRRLIYLVSTLGSGVPDRFSGSGSGTDFTLKISRVEAEDVGVYYCMQLTHEPYTFGQGTKLEIK
